Ends that are not written are not given here.
Experiments:
[1] = molecular target: T1, dephosphorylated (non-phosphorylated) osteopontin (recombinant human OPN expressed in E. coli) (human, UniProt P10451 17-314); experiment: SPR; hBD3, SLPI and LL37 immobilised in different flow cells (50 ug/mL in 10 mM sodium acetate pH 5.5); dOPN or pOPN flowed at 10 uL/min; BIAcore X100, 25°C, HBS-EP (10 mM HEPES, 150 mM NaCl, 3 mM EDTA, 0.05% surfactant P20, pH 7.4); Langmuir model; conditions: both partners purified
T1 construct: osteopontin (OPN), human, recombinant, expressed in E. coli, non-phosphorylated; Commercial protein; Called 'dephosphorylated' but it is simply made in E. coli (non-phosphorylated), not treated with a phosphatase; also called dOPN; SPP1; source: bought: Abcam (expressed in E. coli; purity >= 90% according to the manufacturer)

[2] = molecular target: T2, phosphorylated osteopontin (recombinant human OPN derived from HEK293 cells) (human, UniProt P10451 17-314, phosphorylated (sites not given; phosphorylation pattern in Supplementary Figure 2)); experiment: as above; conditions: both partners purified
T2 construct: osteopontin (OPN), human, recombinant, expressed in HEK293 cells; Commercial protein; From a eukaryotic host, so it probably differs from dOPN in glycosylation as well as in phosphorylation; also called pOPN; SPP1; source: bought: Peprotech (expressed in HEK293 cells; purity >= 97% according to the manufacturer)
T2 sequence (P10451 17-314): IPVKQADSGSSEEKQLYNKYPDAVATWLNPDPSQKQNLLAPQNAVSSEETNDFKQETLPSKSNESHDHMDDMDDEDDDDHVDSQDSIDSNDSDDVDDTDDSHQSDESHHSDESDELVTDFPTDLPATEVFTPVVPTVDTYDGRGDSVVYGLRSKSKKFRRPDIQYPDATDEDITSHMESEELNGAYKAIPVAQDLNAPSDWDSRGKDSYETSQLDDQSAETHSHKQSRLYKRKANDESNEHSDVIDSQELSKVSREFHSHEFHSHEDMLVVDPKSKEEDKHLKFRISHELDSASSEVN

T1 sequence (P10451 17-314): as above

B1: human β-defensin-3 (peptide, UniProt P81534 23-67, looked up)
chain: GIINTLQKYYCRVRGGRCAVLSCLPKEEQIGKCSTRGRKCCRRKK
modifications: ends and bridges not checked; cysteine pairing not given here
notes: human beta-defensin 3 (hBD-3), antimicrobial peptide; also called hBD3; hBD-3; source: bought: Abcam
- Kd [1]: 83.8 nM
- Kd [2]: 6.5 nM

B2: secretory leukocyte protease inhibitor (natural protein, UniProt P03973 26-132, looked up)
chain: SGKSFKAGVCPPKKSAQCLRYKKPECQSDWQCPGKKRCCPDTCGIKCLDPVDTPNPTRRKPGKCPVTYGQCLMLNPPNFCEMDGQCKRDLKCCMGMCGKSCVSPVKA
notes: Commercial protein; also called SLPI; source: bought: Abcam
- Kd [1]: 4650 nM
- Kd [2]: 6.25 nM

Reference: PMC9779928, “Tartrate resistant acid phosphatase 5 (TRAP5) mediates immune cell recruitment in a murine model of pulmonary bacterial infection” (Frontiers in Immunology, 2022)
